The source of these data is the DeepSol protein solubility set.

The nature of this data set: soluble on expression in E. coli; label from the status in PepcDB or PDB records.
As for “MMSGQGKRLMVMAGGTGGHVFPGLAVAHHLMAQGWQVRWLGTADRMEADLVPKHGIEIDFIRISGLRGKGIKALIAAPLRIFNAWRQARAIMKAYKPDVVLGMGGYVSGPGGLAAWSLGIPVVLHEQNGIAGLTNKWLAKIATKVMQAFPGAFPNAEVVGNPVRTDVLALPLPQQRLAGREGPVRVLVVGGSQGARILNQTMPQVAAKLGDSVTIWHQSGKGSQQSVEQAYAEAGQPQHKVTEFIDDMAAAYAWADVVVCRSGALTVSEIAAAGLPALFVPFQHKDRQQYWNALPLEKAGAAKIIEQPQLSVDAVANTLAGWSRETLLTMAERARAASIPDATERVANEVSRVARALEHHHHHH”, the “soluble on expression in E. coli” value is “soluble”.
The same measure for “MGSDKIHHHHHHMSNEHQLLVGLLKKLKDDALILPTLPEVAMRVQEVVGRPDSSLKQVAEIIGQDAAISARIIKVANSALYSRGVPAENINSAVTRIGLTQIKSIATSVAMEQLFISTNEMVWEVMDEVWRTSIDVTAAACSLLQIYNKKHPGSGLNYDTLTLAGLVHNIGALPVLTEAEAHPEMFTTIEHLRSLVRKMQGPIGRAVLKSWDFAPEVMEVVERWADLPYLGDHVSYLDFIRAAAFYTGELRAGNELEQRLDVFVKRGLPVSPEDLGSDAFLDSYHSIKASYE”: “not soluble”.
Under “MRELKVVGLDADGKNIICQGAIPSEQFKLPVDDRLRAALRDDSVQPEQAQLDIEVTNVLSPKEIQARIRAGASVEQVAAASGSDIARIRRFAHPVLLERSRAAELATAAHPVLADGPAVLTMQETVAAALVARGLNPDSLTWDAWRNEDSRWTVQLAWKAGRSDNLAHFRFTPGAHGGTATAIDDTAHELINPTFNRPLRPLAPVAHLDFDEPEPAQPTLTVPSAQPVSNRRGKPAIPAWEDVLLGVRSGGRR” stands “soluble”; under “MSIQNISFLGAGSIAEAIIGGLLHANVVKGEQITVSNRSNETRLQELHKKYGVKGTHNKKELLTDANILFLAMKPKDVAEALTPFKEYINNNVLIISLLAGVSTDSIRKLLQKDVPIIRAMPNTSAAILKSATAISPSKHATAEHIRTATSLFETIGLVSVVEEEDMHAVTALSGSGPAYIYYVVEAMEEAAKKIGLKEDVAKSLILQTMIGAAEMLKASDKHPSILRKEITSPGGTTEAGIEVLQEHKFQQALISCITQATKRSHNLGKTLEQLTKEKLEHHHHHH”, “soluble”; under “MRQIKVVLIGGGTGLSVMARGLREFPIDITAIVTVADNGGSTGKIRDEMDIPAPGDIRNVIAALSDSESVLSQLFQYRFEENQISGHSLGNLLIAGMTNITNDFGHAIKALSKILNIKGRVIPSTNTSVQLNAVMEDGEIVFGETNIPKKHKKIDRVFLEPNDVQPMEEAIDALREADLIVLGPGSLYTSVISNLCVNGISDALIHSDAPKLYVSNVMTQPGETDGYSVKDHIDAIHRQAGQPFIDYVICSTQTFNAQVLKKYEEKHSKPVEVNKAELEKESINVKTSSNLVEISENHLVRHNTKVLSTMIYDIALELISTIPFVPSDKRKLEHHHHHH”, “soluble”.
The same measure for “TVVVSEAGASVYSASEFAANEFPNLDVSLRGAVSIARRLQDPLAELVKIEPKAIGVGQYQHDVNQTQLARKLDAVVEDCVNAVGVDLNTASAPLLARVAGMTKTLAQNIVEYRDENGRFESRSELKKVPRLGPKAFEQCAGFMRIANGKNPLDASGVHPEAYPVVEKILQATAQSIQDLMSNAGVVRQLDAKQFI”: “not soluble”; for “MSLASVKEAAAVRPPLNQILFGPPGTGKTYEAIEKALEILDPSFLLQLGDDESNERRRALKRRYDELAKEGLVQFVTFHQSFSYENFVEGLSASSDPDTKQVRYEVEDGVFKELCESARTRLVRRSDDAPLELSGRRIWKLSLGDSITEGHIFEECMEKGLALMGFGNNADFSQCQSREDIQKMFAASGEPLSLGAYPITAIKTFVCQMKLGDLIVVSEGNLKFRAIGEITGDYQLLPRDSDTYSQARPVRWLRGYKPALPYGALMENRFSQMTVYELRAGSIDHDKFRELLKSECIATGADRPHVLIIDEINRGNVSRIFGELITLIEPSKRSGAAEALEVLLPYSKDPFSVPDNVYLIGTMNTADRSLAGLDIALRRRFDFVEMAPRPDKLTGVKVAEIDISAVLETMNRRIEVLLDREHRLGHAYFMSLENSNDLSRLSNIFRQQIIPLLQEYFFEDWQRIAWILNDHRKDERFRFIVPAPYSVDSLFGDTGQVAQDSKAWRMNEEAFHKPQSYLGIVGDGKEGHHHHHH”: “soluble”; for “MSLTTHGKPVLVATDLSARTDRAVDRATQLAGEWGVRLIVLHAIEPDSRLHARPELANQAMREVLADPEADVDILPALDLAPTAIVEAAKSADCGLIVTGVARFNHVGDYFIGTAVDHVVRHATVPVLVVKQRPHNAYRTIVVATDYSSCSRLALLTAAEFFPDAAIHLVHAYHVPYEAWLRSDEVREDVTREAQRELDAFVLDPAIPANVRQRISAKLVYGETHTVLSSTAYELGADLLVLGTHGSGGYFAAVMGRMAESLLRCADIDTLVVREIGSTGSEGHHHHHH”: “soluble”.
“MAAAAAAAGGAALAVSTGLETATLQKLALRRKKVLGAEEMELYELAQAAGAAIDPDVFKILVDLLNLNVAPLAVFQMLKSMCAGQRLASDPQDSVPISLSTSTSETRGRNRGGPILGNVTISAERGSRERPIQRMPRQPSATRLPKVGGSGKSNSRSSP”: the “soluble on expression in E. coli” value is “soluble”.
Regarding “MAAAGEEYSSDKIEERSLAAIDSMIDPDISGPMRHIVVKAIHAAGDFAIAPLIRYSDGFFKSMLAKLKEGCTIICDSEMVRAGIYSRPVLERNRVVCYLNDVRSKEMADVNGITRSAAGIRIAMQDHRNSVIVIGNAPTALLEAMRMIEENGWYDIPIVGIPVGFINASKAKEGLVSSHIEYISVEGHRGGSPIAASIVNGFGRFLA”, the “soluble on expression in E. coli” value is reported as “soluble”.
Regarding “MGSDKIHHHHHHMPRKPIPALPPLDWLRSFEAAARLSNFTAAAAELGLTQAAVSQHIRLLEERLKTRLFSRLARGVALSPEGAAYLPHIQSAFATISSSTTELFEPRAVQTVSIRVPISFALLILVPALPDLAEALPRIQLDLVTIHRPTDYDLPGSALDIRFGNGSFPGREAGRLTAERLVPVASPALAGAADWTALPLLLVAGAREMWAEWFAAAGLAGHPQRSHRFDSFVAAMEAASAGAGVLLGSRPLVDAALRNRTLVPLSDFELSSSSGHFLTSASTARLTSAEQDFRQWLLGHLSRKAPA”, the “soluble on expression in E. coli” value is recorded as “not soluble”.
On to “MTQFDKQYNSIIKDIINNGISDEEFDVRTKWDSDGTPAHTLSVISKQMRFDNSEVPILTTKKVAWKTAIKELLWIWQLKSNDVNDLNMMGVHIWDQWKQEDGTIGHAYGFQLGKKNRSLNGEKVDQVDYLLHQLKNNPSSRRHITMLWNPDELDAMALTPCVYETQWYVKHGKLHLEVRARSNDMALGNPFNVFQYNVLQRMIAQVTGYELGEYIFNIGDCHVYTRHIDNLKIQMEREQFEAPELWINPEVKDFYDFTIDDFKLINYKHGDKLLFEVAV”, for which the “soluble on expression in E. coli” value is given as “soluble”.
As for “MKHLKFQSVFDIIGPVMIGPSSSHTAGAVRIGKVVHSIFGEPSEVTFHLYNSFAKTYQGHGTDKALVAGILGMDTDNPDIKNSLEIAHQKGIKIYWDILKDSNSPHPNTAKITVKNGDRSMSITGVSIGGGNIQVTELNGFSVSLTMNTPTLIIVHQDIPGMIAKVTDILSDFNINIAQMNVTRESAGEKAIMIIEVDSRDCQQAVKKIEAIPHLHNVNFFD”, the “soluble on expression in E. coli” value is recorded as “soluble”.
Under “MHDANIRVAIAGAGGRMGRQLIQAALALEGVQLGAALEREGSSLLGSDAGELAGAGKTGVTVQSSLDAVKDDFDVFIDFTRPEGTLNHLAFCRQHGKGMVIGTTGFDEAGKQAIRDAAADIAIVFAANFSVGVNVMLKLLEKAAKVMGDYTDIEIIEAHHRHKVDAPSGTALAMGEAIAHALDKDLKDCAVYSREGHTGERVPGTIGFATVRAGDIVGEHTAMFADIGERLEITHKASSRMTFANGAVRSALWLSGKESGLFDMRDVLDLNNL” stands “soluble”; under “HMSMYAVNAGIAKTTVQILVDHIAHSGWLDEAASAVLLDIVRTPISPELKPVGQDGNISQKTEDLVGPYELHDFFIYHFLHNEYKPSKIYYLAGVAFKGIYTKAEIKKWMMVFFRRFFAQQYKRNCMPDGPKVSCISLSPRGAWRMASDASSALWLDEIAKFETD”, “not soluble”; under “MARSIDYGNLMHRAMRGLIQSVLEDVAEHGLPGAHHFFITFDTTHPDVAMADWLRARYPQEMTVVIQHWYENLSADDHGFSVTLNFGNQPEPLVIPFDAVRTFVDPSVEFGLRFETHEEDEEEETGGDEDPDGDDEPPRHDAQVVSLDKFRKAAALEHHHHHH”, “soluble”.
With “MSLTMREVAKAAGVSIKTVSNVVNDYEFVSQATRDKVNKAIAELGYTVNVSARNLRRGQTGIIGLAIPDLQMPYFAQLSSLVIEEAKKVGLRVIVEPTQYSRDGELEALHGSQQMMIDGLIYSPLELGQDDVEQLKVDYPLVLVGERIFTDQVDHIATENVEGAKRATQYLLTTGCRRVAVVGVHPGEKVGSAALRYQGYLEALEEAGVEFDDRLVVESGMWHRSDGVRAMNALLDSGVEVDGVVALNDMLASGVMHAIQMHGLHIPDDISVVGFDNSDDSQYLSPALTSIAPGLEAVARLSVKVLKERIDGRDPNADRPGEKVFRKVASSLVVRQSTEGHHHHHH”, the “soluble on expression in E. coli” value was “soluble”.
Turning to “MGSDKIHHHHHHMKNFVVTTSHKPDREQVMKAKELAEKLGTIYVSRRRLKEFKVDFYYVVEKNRISIKWPGGEFFFHPSSAILRMRNIRSGQKDYLIESLQPEGNEIVLDTTFGLGSEAILMAAFLPEGKVIGLEGSIHIYTIVKYGMENFETDIRWLKDALKRIELYHANFKEYIRSQPDNSFDVVYCDPMFENPVYESSAMNPLRPFAVYDTVNEEDIEEMLRIAKKKVILKSHVKDSLFKRIRVDELKGSRKSGVLYGVIYKR”, the “soluble on expression in E. coli” value is reported as “not soluble”.
For “MAKKKKEILFCDYYEDWVETYKVGAIEDVTLNKYYVAARQLRDICPKLLMSDFSRKDYQLIMNEYGKTHEKQTAKDFHHHIKAAILDAYHDGLLKSDPTYRAVIKGKELEHHHHHH”, the “soluble on expression in E. coli” value is given as “not soluble”.
Under “MAWSRVGDNIATHPLMSRLLTSCEFDHSLKNEAFGALVQLTTVSAAHLTDYIIEYGLMAQIAPGREKQLIDVLVDAGMLFRDEVDGRKVLRIVDDNELLHNRSRDEVEIDRRRAADKRNPALIPAVRYRDGDQCRWCGRTVDWRDRKGGRAATIDSLNEHRESTVDTLVVACKSCNSKRGAGEELQLLPTPTREKVHYTDHTIDWINRSEWAQHEGIHLEPRQTHLDIGQQITTPAAPSEQQQVGQAAAPLEAAARAHRAAPDVEAPFVSDPLDEAPDWVKQSLVNDHGQAAAPLMAAAPREHDHAPAAPSEQQQVGQAAAPLEAAARAHRAAPDVEAPPQHHVDNETVKPSTDLEQITDRWGDGSRSLGTGRDGNGQVGTARRRRRRRRGGRGTGRNKAHG” stands “not soluble”; under “MLIVLSLGGSILAKNLDPDRFLKYANALRDISKKHTLLVVTGGGEAARDYIGAARAMGADEVTCDYIGIEITRLNARLLISALGHDAYPEIPSNYPEASKAMTSGKVVVMGGVTPGQTTDAVASILAEYLRADLLTIATSIDGVYSSDPNCDPCAVKYEKISPEKLINIVMAIEMKAGSKSPVDPVAAKIIERCKLDALVMDARNPDLLVEVICGEAAKKSPVSCGTWITAKKMAGDPLEHHHHHH”, “soluble”; under “MFDVVAVGELLIDFLPAGTNENGMPLFSSNPGGAPANVLAMLSKLGAKTAFIGKVGKDGFGQFLKATLDNAGIDTSNLLMSSSEMTTLAFVHLNEKGDRSFSFYRKHCADVSLDAGELDKDLLRTCHFLHFGAVSLTDEPSRTATLEAARIAKEAGAIISYDPNYRPALWSNEHEARKYMLKAVEYADLVKVSEEELWLLAESEDFSKGAHKLLAMGPSVVFVTCGEKGSYVFTGSCKANHCGYDVKVVDTTGAGDAFVGAMLWQLRGMSLEEISQICEQKWGELLAFSNAAGTIVATKKGAIPAMPDLDTINTFMRQFLEEK”, “soluble”.
